Laboratory results from paper PMC3262080.

Target: HuR (UniProt Q15717 1-326)
Assay: fluorescence anisotropy

Sequence of HuR (Q15717 whole entry): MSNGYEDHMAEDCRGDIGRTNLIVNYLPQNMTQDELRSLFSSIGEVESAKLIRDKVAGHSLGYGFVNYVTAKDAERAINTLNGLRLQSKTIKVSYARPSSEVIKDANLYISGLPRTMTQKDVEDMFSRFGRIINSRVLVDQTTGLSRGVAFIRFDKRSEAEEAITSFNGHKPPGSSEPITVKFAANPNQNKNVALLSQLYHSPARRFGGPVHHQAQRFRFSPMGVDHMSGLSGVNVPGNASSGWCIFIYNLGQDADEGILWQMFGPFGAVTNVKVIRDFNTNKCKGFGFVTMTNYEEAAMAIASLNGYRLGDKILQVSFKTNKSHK

B1: miR-16 (mature, 5'TMR-labeled) (ssRNA)
RNA: UAGCAGCACGUAAAUAUUGGCG
Kd: 0.12 ± 0.009 µM
